Assay results from US20190135928A1 (Bristol-Myers Squibb, published 2019).
Changes are numbered by the printed parent chain.

Columns and labels:
Test in all cases: cell-based or functional assay
human TL1A (in-house) [1] = target: T1, human TL1A (in-house) (human, UniProt O95150 57-251, limits assumed)
T1 sequence: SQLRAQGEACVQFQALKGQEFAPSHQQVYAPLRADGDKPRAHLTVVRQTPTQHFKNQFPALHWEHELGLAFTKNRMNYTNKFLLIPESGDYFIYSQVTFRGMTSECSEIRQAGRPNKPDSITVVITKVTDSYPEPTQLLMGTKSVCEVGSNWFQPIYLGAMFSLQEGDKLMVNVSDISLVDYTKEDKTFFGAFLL

human TL1A (in-house) [2] = target: T1, human TL1A (in-house); remark: listed apart in the source
[3] = target: T2, TL1A expressed on transfected CHO cells (Homo sapiens (Human), UniProt O95150 1-251)
T2 sequence: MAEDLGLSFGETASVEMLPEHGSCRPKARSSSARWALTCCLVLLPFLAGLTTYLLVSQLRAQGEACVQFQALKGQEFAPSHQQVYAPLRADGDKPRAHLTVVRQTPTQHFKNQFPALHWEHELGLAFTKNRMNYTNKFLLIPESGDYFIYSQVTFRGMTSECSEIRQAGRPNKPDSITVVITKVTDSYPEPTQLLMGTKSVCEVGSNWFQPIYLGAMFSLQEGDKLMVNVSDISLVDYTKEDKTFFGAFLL

human TL1A (in-house) [4] = target: T1, human TL1A (in-house); remark: listed apart in the source
human TL1A (in-house) [5] = target: T1, human TL1A (in-house); remark: listed apart in the source
[6] = target: T3, cynomolgus TL1A (in-house) (cynomolgus monkey, UniProt G7PRK8 57-251)
T3 sequence: T1 sequence with F13L, A15D, F54L, I93V

- EC50, TL1A + IL-12 + IL-18 driven IFNg (Hu Tcells) (2.45 mg/ml), Donor A, ELN ref 99932-004955 (human TL1A (in-house) [1]): 0.172 nM
- EC50, TL1A + IL-12 + IL-18 driven IFNg (Hu Tcells) (2.45 mg/ml), Donor B, ELN ref 97305-062 (human TL1A (in-house) [1]): 0.259 nM
- EC50, TL1A + IL-12 + IL-18 driven IFNg (Hu Tcells) (2.45 mg/ml), Donor B, ELN ref 97305-064 (human TL1A (in-house) [1]): 0.199 nM
- EC50, TL1A + IL-12 + IL-18 driven IFNg (Hu Tcells) (2.45 mg/ml), Donor B, ELN ref 97305-066 (human TL1A (in-house) [1]): 0.347 nM
- EC50, TL1A + IL-12 + IL-18 driven IFNg (Hu Tcells) (2.45 mg/ml), Donor B, ELN ref 97305-077 (human TL1A (in-house) [1]): 0.258 nM
- EC50, TL1A + IL-12 + IL-18 driven IFNg (Hu Tcells) (2.45 mg/ml), Donor B, ELN ref 97305-082 (human TL1A (in-house) [1]): 0.039 nM
- EC50, TL1A + IL-12 + IL-18 driven IFNg (Hu Tcells) (2.45 mg/ml), Donor B, ELN ref 99932-003797 (human TL1A (in-house) [1]): 0.312 nM
- EC50, TL1A + IL-12 + IL-18 driven IFNg (Hu Tcells) (2.45 mg/ml), Donor B, ELN ref 99932-004083 (human TL1A (in-house) [1]): 0.311 nM
- EC50, TL1A + IL-12 + IL-18 driven IFNg (Hu Tcells) (2.45 mg/ml), Donor B, ELN ref 99932-004084 (human TL1A (in-house) [1]): 0.303 nM
- EC50, TL1A + IL-12 + IL-18 driven IFNg (Hu Tcells) (2.45 mg/ml), Donor B, ELN ref 99932-004439 (human TL1A (in-house) [1]): 0.194 nM
- EC50, TL1A + IL-12 + IL-18 driven IFNg (Hu Tcells) (2.45 mg/ml), Donor B, ELN ref 99932-004774 (human TL1A (in-house) [1]): 0.319 nM
- EC50, TL1A + IL-12 + IL-18 driven IFNg (Hu Tcells) (2.45 mg/ml), Donor B, ELN ref 99932-004955 (human TL1A (in-house) [1]): 0.211 nM
- EC50, TL1A + IL-12 + IL-18 driven IFNg (Hu Tcells) (4.8 mg/ml), Donor A, ELN ref 97305-082 (human TL1A (in-house) [2]): 0.162 nM
- EC50, TL1A + IL-12 + IL-18 driven IFNg (Hu Tcells) (4.8 mg/ml), Donor A, ELN ref 99932-003797 (human TL1A (in-house) [2]): 0.303 nM
- EC50, TL1A + IL-12 + IL-18 driven IFNg (Hu Tcells) (4.8 mg/ml), Donor A, ELN ref 99932-004083 (human TL1A (in-house) [2]): 0.27 nM
- EC50, TL1A + IL-12 + IL-18 driven IFNg (Hu Tcells) (4.8 mg/ml), Donor A, ELN ref 99932-004084 (human TL1A (in-house) [2]): 0.316 nM
- EC50, TL1A + IL-12 + IL-18 driven IFNg (Hu Tcells) (4.8 mg/ml), Donor A, ELN ref 99932-004439 (human TL1A (in-house) [2]): 0.262 nM
- EC50, TL1A + IL-12 + IL-18 driven IFNg (Hu Tcells) (4.8 mg/ml), Donor A, ELN ref 99932-004774 (human TL1A (in-house) [2]): 0.177 nM
- EC50, TL1A + IL-12 + IL-18 driven IFNg (Hu Tcells) (4.8 mg/ml), Donor A, ELN ref 99932-004955 (human TL1A (in-house) [2]): 0.193 nM
- EC50, TL1A + IL-12 + IL-18 driven IFNg (Hu Tcells) (4.8 mg/ml), Donor A, ELN ref 99932-005751 (human TL1A (in-house) [2]): 0.216 nM
- EC50, TL1A + IL-12 + IL-18 driven IFNg (Hu Tcells) (4.8 mg/ml), Donor B, ELN ref 97305-082 (human TL1A (in-house) [2]): 0.143 nM
- EC50, TL1A + IL-12 + IL-18 driven IFNg (Hu Tcells) (4.8 mg/ml), Donor B, ELN ref 99932-003797 (human TL1A (in-house) [2]): 0.361 nM
- EC50, TL1A + IL-12 + IL-18 driven IFNg (Hu Tcells) (4.8 mg/ml), Donor B, ELN ref 99932-004084 (human TL1A (in-house) [2]): 0.345 nM
- EC50, TL1A + IL-12 + IL-18 driven IFNg (Hu Tcells) (4.8 mg/ml), Donor B, ELN ref 99932-004439 (human TL1A (in-house) [2]): 0.157 nM
- EC50, TL1A + IL-12 + IL-18 driven IFNg (Hu Tcells) (4.8 mg/ml), Donor B, ELN ref 99932-004774 (human TL1A (in-house) [2]): 0.267 nM
- EC50, TL1A + IL-12 + IL-18 driven IFNg (Hu Tcells) (4.8 mg/ml), Donor B, ELN ref 99932-004955 (human TL1A (in-house) [2]): 0.287 nM
- EC50, TL1A + IL-12 + IL-18 driven IFNg (Hu Tcells) (4.8 mg/ml), Donor B, ELN ref 99932-005751 (human TL1A (in-house) [2]): 0.138 nM
- EC50, TL1A-expressing CHO cells + IL-12 + IL-18 driven IFNg (Hu PBMCs)(2.45 mg/ml), Donor A, ELN ref 97305-034 [3]: 0.234 nM
- EC50, TL1A-expressing CHO cells + IL-12 + IL-18 driven IFNg (Hu PBMCs)(2.45 mg/ml), Donor B, ELN ref 97305-034 [3]: 0.214 nM
- EC50, TL1A + IL-12 + IL-18 driven IFNg (Hu WB)(2.45 mg/ml), Donor A, ELN ref 97305-029 (human TL1A (in-house) [4]): 0.32 nM
- EC50, TL1A + IL-12 + IL-18 driven IFNg (Hu WB)(2.45 mg/ml), Donor A, ELN ref 97305-033 (human TL1A (in-house) [4]): 0.284 nM
- EC50, TL1A + IL-12 + IL-18 driven IFNg (Hu WB)(2.45 mg/ml), Donor B, ELN ref 97305-029 (human TL1A (in-house) [4]): 0.54 nM
- EC50, TL1A + IL-12 + IL-18 driven IFNg (Hu WB)(2.45 mg/ml), Donor B, ELN ref 97305-033 (human TL1A (in-house) [4]): 0.108 nM
- EC50, TL1A + IL-12 + IL-18 driven IFNg (Hu PBMCs) (5.9 mg/ml), Donor A, ELN ref 99932-005481 (human TL1A (in-house) [5]): 0.295 nM
- EC50, TL1A + IL-12 + IL-18 driven IFNg (Hu PBMCs) (5.9 mg/ml), Donor B, ELN ref 99932-005481 (human TL1A (in-house) [5]): 0.241 nM
- EC50, TL1A + IL-12 + IL-18 driven IFNg (Cyno PBMCs)(2.45 mg/ml), Donor A, ELN ref 97305-067 [6]: 0.122 nM
- EC50, TL1A + IL-12 + IL-18 driven IFNg (Cyno PBMCs)(2.45 mg/ml), Donor A, ELN ref 97305-071 [6]: 0.154 nM
- EC50, TL1A + IL-12 + IL-18 driven IFNg (Cyno PBMCs)(2.45 mg/ml), Donor A, ELN ref 97305-074 [6]: 0.105 nM
- EC50, TL1A + IL-12 + IL-18 driven IFNg (Cyno PBMCs)(2.45 mg/ml), Donor A, ELN ref 97305-076 [6]: 0.097 nM
- EC50, TL1A + IL-12 + IL-18 driven IFNg (Cyno PBMCs)(2.45 mg/ml), Donor B, ELN ref 97305-067 [6]: 0.164 nM
- EC50, TL1A + IL-12 + IL-18 driven IFNg (Cyno PBMCs)(2.45 mg/ml), Donor B, ELN ref 97305-071 [6]: 0.133 nM
- EC50, TL1A + IL-12 + IL-18 driven IFNg (Cyno PBMCs)(2.45 mg/ml), Donor B, ELN ref 97305-074 [6]: 0.129 nM
- EC50, TL1A + IL-12 + IL-18 driven IFNg (Cyno PBMCs)(2.45 mg/ml), Donor B, ELN ref 97305-076 [6]: 0.093 nM
B1: TL1A antibody 10A4.F7.2E8 huIgG4 (antibody, V domains shown)
VH: QLQLQESGPGLVKPSETLSLTCTVSGGSISSRSYYWGWIRQPPGKGLEWIGSIYYNGRTYYNPSLKSRVTISVDTSKNQFSLKLSSVTAADTAVYYCAREDYGDYGAFDIWGQGTMVTVSS
VL: AIQLTQSPSSLSASVGDRVTITCRASQGISSALAWYQQKPGKAPKLLIYDASSLESGVPSRFSGSGSGTDFTLTISSLQPEDFATYYCQQFNSYPLTFGGGTKVEIKR
